# Laboratory results reported in paper doi:10.1101/2025.05.13.653815, “Roles of the MO25 protein Pmo25 in contractile-ring stability and localization of the NDR kinase Sid2 during cytokinesis” (bioRxiv, 2025).
# T1: MBP-Ync13-full length-6His (S. pombe, UniProt O13683 1-1237)
# T1 construct: pET21a-MBP: MBP-TEV-GGSGGS stands before Ync13, 6xHis after it; not shown: MBP, N-terminal, kept; His6, C-terminal, kept
# T1 sequence (looked up): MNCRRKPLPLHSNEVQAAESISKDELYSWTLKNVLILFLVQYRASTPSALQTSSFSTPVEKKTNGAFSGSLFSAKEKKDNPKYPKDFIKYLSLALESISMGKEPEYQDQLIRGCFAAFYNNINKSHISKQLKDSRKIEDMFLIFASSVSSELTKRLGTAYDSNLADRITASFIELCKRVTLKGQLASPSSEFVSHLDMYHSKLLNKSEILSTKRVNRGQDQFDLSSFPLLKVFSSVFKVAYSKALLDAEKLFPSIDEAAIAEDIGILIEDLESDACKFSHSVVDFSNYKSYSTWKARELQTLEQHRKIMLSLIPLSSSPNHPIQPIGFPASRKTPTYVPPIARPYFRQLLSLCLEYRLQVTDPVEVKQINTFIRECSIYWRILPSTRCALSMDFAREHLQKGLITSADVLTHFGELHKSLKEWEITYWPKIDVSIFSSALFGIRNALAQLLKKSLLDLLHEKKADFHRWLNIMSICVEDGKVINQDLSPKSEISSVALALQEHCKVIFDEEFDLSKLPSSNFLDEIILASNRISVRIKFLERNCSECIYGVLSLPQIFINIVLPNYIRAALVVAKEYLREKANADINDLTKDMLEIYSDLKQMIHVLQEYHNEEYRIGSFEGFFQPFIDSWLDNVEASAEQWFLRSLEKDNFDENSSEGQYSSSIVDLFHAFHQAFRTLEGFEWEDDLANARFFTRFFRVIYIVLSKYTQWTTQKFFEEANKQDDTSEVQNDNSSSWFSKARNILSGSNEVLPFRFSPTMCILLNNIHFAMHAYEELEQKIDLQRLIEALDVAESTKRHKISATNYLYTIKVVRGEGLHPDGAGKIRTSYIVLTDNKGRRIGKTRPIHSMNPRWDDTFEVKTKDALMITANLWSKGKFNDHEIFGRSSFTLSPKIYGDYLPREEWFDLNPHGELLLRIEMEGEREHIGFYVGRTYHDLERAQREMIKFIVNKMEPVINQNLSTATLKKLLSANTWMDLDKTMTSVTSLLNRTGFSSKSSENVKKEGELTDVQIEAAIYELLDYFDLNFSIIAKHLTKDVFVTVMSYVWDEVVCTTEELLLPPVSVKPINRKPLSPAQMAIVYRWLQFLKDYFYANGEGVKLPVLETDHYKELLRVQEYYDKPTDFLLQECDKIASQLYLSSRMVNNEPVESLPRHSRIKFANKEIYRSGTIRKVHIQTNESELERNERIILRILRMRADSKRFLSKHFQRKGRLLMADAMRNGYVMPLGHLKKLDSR
# T2: MBP-Ync13-(591-1130)-6His (S. pombe, UniProt O13683 591-1130)
# T2 construct: The cloning of this truncation is not described; not shown: MBP, N-terminal, kept; His6, C-terminal, kept
# T2 sequence (looked up): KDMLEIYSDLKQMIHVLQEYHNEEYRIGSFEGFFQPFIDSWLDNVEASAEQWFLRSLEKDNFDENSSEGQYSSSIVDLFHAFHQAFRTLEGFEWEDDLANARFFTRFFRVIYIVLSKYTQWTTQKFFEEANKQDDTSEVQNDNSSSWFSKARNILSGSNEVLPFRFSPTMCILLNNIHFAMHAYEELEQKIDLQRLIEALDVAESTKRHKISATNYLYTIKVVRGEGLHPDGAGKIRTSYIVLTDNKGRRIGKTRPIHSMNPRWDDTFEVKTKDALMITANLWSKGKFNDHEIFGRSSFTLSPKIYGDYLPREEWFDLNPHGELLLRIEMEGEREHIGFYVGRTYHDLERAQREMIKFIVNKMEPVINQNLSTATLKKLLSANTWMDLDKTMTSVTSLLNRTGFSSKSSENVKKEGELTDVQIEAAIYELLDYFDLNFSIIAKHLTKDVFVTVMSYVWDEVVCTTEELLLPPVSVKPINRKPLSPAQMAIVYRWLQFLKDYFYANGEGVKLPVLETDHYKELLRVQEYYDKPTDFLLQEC
# B1: Pmo25-(19-329)-6His (domain or fragment, S. pombe, UniProt Q9P7Q8 19-329, looked up)
# chain: LCDNLPKLEINNDKKKSFEEVSKCLQNLRVSLCGTAEVEPDADLVSDLSFQIYQSNLPFLLVRYLPKLEFESKKDTGLIFSALLRRHVASRYPTVDYMLAHPQIFPVLVSYYRYQEVAFTAGSILRECSRHEALNEVLLNSRDFWTFFSLIQASSFDMASDAFSTFKSILLNHKSQVAEFISYHFDEFFKQYTVLLKSENYVTKRQSLKLLGEILLNRANRSVMTRYISSAENLKLMMILLRDKSKNIQFEAFHVFKLFVANPEKSEEVIEILRRNKSKLISYLSAFHTDRKNDEQFNDERAFVIKQIERL
# notes: pET21a, between the N-terminal T7 tag and the C-terminal 6xHis tag; not shown: His6, C-terminal, kept
# Columns and labels:
# [1] = target: T1, MBP-Ync13-full length-6His; assay: pull-down; Kd by supernatant depletion: various concentrations of MBP-Ync13 on amylose beads with a fixed low concentration of Pmo25-(19-329)-6His, 1 h at 4°C; supernatant on SDS-PAGE, Coomassie Blue; one site binding equation; conditions: both partners purified
# [2] = target: T2, MBP-Ync13-(591-1130)-6His; assay: as above; conditions: both partners purified
binder,measurement,setting,value
B1,Kd,[1],490 nM
same,Kd,[2],620 nM
